Assay: yeast display, Sf9 membrane polyspecificity reagent, FACS + sequencing; frameworks hold sequencing errors
Summary of the method: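 Galactose-induced (36–48 hours) yeast carrying a synthetic nanobody display library were exposed to 10% biotinylated, detergent-solubilized Sf9 membrane reagent at 4 °C for 1 hour. FACS followed streptavidin microbead enrichment, using low and high (top ~1%) gates for expression (anti-HA) and reagent binding (streptavidin). Colony PCR, MiSeq 2 × 250 sequencing and CDR-length filtering followed. Labels for polyreactivity reflect the gate of origin.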

Row | Sequence | polyreactivity (PSR sort gate)
1 | QVQLVESGGGLVQAGGSLRLSCAASGSTFYTNAMGWSRQAPGKERELVASIDRGGGSTYYAESVKGRFTISRDNAKNTVYLQMNSLKPEDTAVYYCAASFDGRYWGYYYWGQGTKVTVSS | low polyreactivity
2 | QVQLVESGGGLVQAGGSLRLSCAASGRTFLPNAMGWYRQAPGKERELVAVITSGGSTNYADSVKGRFTISRDNAKNTVYLQMKSLKPEDTAVYYCAARRWSSSQGHWGKSAGYGYWGQGTQVTVSS | low polyreactivity
3 | QVQLVESGGGLVQAGGSLRLSCAASGSIFVSNAMGWYRQAPGKERELVAAISYSTSRTYYADSVKGRFTISRDNAKNTVYLQMNSLKPEDTAVYYCAVRVRVADGRSNYWGQGTQVTVSS | high polyreactivity
4 | QVQLVESGGGLVQAGGSLRLSCAASGRTFPRNGMGWYRQAPGKERELVAAISWSGGRTYYADSVKGRFTISRDNAKYTVYLQMNSLKPEDTAVYYCNALYFRKGGYWGHGTQVTVSS | high polyreactivity
5 | QVQLVESGGGLVQAGGSLRLSCAASGRIFAYYAMGWYRQAPGKERELVATITDSGDDTYYADSVKGRFTISRDNAKNTVYLQMNSLKPEDTAVYYCNAVWRGWYPYWYDYWGQGTQVTVSS | low polyreactivity
6 | QVQLVESGGGLVQAGGSLRLSCAASGSIFNYYAMGWYRQAPGKERELVAGITTSGGSTYYADSVKGRFTISRDNAKNTVYLQMNSLKPEDTAVYYWAAYDYISSTYFLDDYWGQGTQVTVSS | low polyreactivity
7 | QVHLVESGGGLVQAGGSLRLSCAASGSNFARNAMGWYRHAPGKERELVAAITYSGGRTYYADSVKGRFTISRDNAKNTVYLQMNSLKPEDTAVFYCAVKSFSGHGDYWGQGTEVTVSS | low polyreactivity
8 | QVQLVESVGGLVQAGGSLRLSCAASGSTFKYYAMGWYRPAPGKERELVAAITYSGGRTYYADSVKGRFTISRDNAKNTVYLQMNSLNPEDTAGYYCAARRGREDDYWGQGTQVTVSS | low polyreactivity
9 | QVQLVESGGGLVQAGGSLRLSCAASGFTFISYGMGWYRQAPGKEREFVAAISYSGTGTYYADSVKVRFTISRDNAKNTVYLQMNSLKPEDTAVYYCAVYSRDFRRYDYWGQGTQVTVSS | high polyreactivity
10 | QVQLVESGGGLVQAGGSLRLSCAASGSIFDPYAMGWYRQAPGKERELVAAISFSGGSTSYADSVKGRFTISRDNAKNTVYLQMNSLTPEATAVYYCAKRARFYSETDLKPYGFDYWGHGTQVTVSS | low polyreactivity
11 | QVQLVESGGGLVQAGGSLRLSCAASGSTFKIYARGWYRQAPGKERELVARITGRGGSTYYADSVKGRFTISRDNAKNTVYLQMNSLKPEDTAVYYCAARVYTYYYDLHKRYYWGQGTQVTVSS | high polyreactivity
12 | QGQLVESGGGLVQAGGSLRLSCAASGSIFGPYVMGWYRPAPGTERELVASITSSGGSTYYADSVKGRFTISRDNAKNTVYLQMNSLKPEDTAVYYCAATRSFSGGYGYVSYDYWGQGTQVTVSS | high polyreactivity
13 | QVQLVESGGGLVQAGGSLSLSCAASGYIFAVYAMGWYRQAPGKEREFVAVITWRGGSTYYADSVKGRFTISRDNAKNTVYLQMNSLKPEDTAVYYCAARWHFLTSSRFDYWGQGTQVTVSS | high polyreactivity
14 | QVQLVESGGGLVQAGGSLRLSCAASGNIFSYNAMGWYRQAPGKERELVAAITTSSGRTYYADSVKGRFTISRDNAKNTVYLQMNSLKPEDTAVYYCNRTVSRRSYRWDYDYWGQGTQVTVSS | high polyreactivity
15 | QVQLVESAGRLVQAGGSLRLSCAASGSTYSSNAMGGYRQEPGKERELVAAITTSGGSTYYADSVKGRFTISRDNAKNTVYLQMNSLIPADTAVYYCAADLVHAYQWSIFLYGYWGLGTQVTVSS | low polyreactivity
16 | QVQLVESGGGLVQAGGSLRLSCAASGSIFTLNAMGWYRQAPGKERELVASISKNGGRTYYADSVKGRFTISRDNAKNTVYLQMNCLKPEDTAVYYCAARYYFTPSDGRRYDYWGQGTQVTVSS | high polyreactivity
17 | QVQLVESGGGLVQAGGSLRLSCAASGSNSSFYAMGWYRQAPGKERELVAGITSGGSTNYADSVKGRFTISRDNAKNTVYLQLNSLKPEDTAVYYCAAERTPSFRAYDYWGQGTLVTVSS | low polyreactivity
18 | QVQLVESGGGLVQAGGSLRLSCAASGSTFALYAMGWYRQAPGKERELVAVITSGGSTYYADSVKGRFTISRDNAKNTVYLQMNSLKPEDTAVYYCAARRHVRKGPLGYWGQGTQVTVSS | high polyreactivity
19 | QVQLLESGGGLVQAGGSLRLSCAASGSTFYINTMGWSRQAPGKERELVAAISWTGGRTYYADSVKGRFTISRDNAKNTVYLQMHSLKPEDTAVYYCAAYYNIPDRRRVGYDYWGQGTQVTVSS | high polyreactivity
20 | QVQLVESGGGLVQAGGSLRLSCAASGRIFYGYAIGWYRQAPGKEREFVARINVSGTSTFYADSVKGRFTISRDNAKNTVYLQMTSLKPEDTAVYDCAARGLPSNDYYYVHGYIMDYWGQGTQVTVSS | low polyreactivity

Row | Sequence | polyreactivity (PSR sort gate)
21 | QVQLVESGGGLVQAGGSLRLSCAASGFIFADYAMGWYRQAPGKERELVAAITRSGGRTYYADSVKGRFTISRDNAKNTVYLQMNSLKPEDTAVYYCAAVGPGRRRDYWGQGTQVTVSS | high polyreactivity
22 | QVQLVESGGGLVQAGGSLRLSCAASGRTFRYYAMVWYRQAPGKEREWVASISSSGARTYYADSVKGRFTISRDNAKNTVYLRMNSQKPEDSAVYYCAASQRSGHPSYDYWGQGTQVTVSS | high polyreactivity
23 | QVQLVESGGGLVQAGGSLRLSCAASGSTFFIYAMGWYRQAPGKERELVAAISKSGGTTYYADSVKGRFTISRDNAKNTVYLQMNSLKPEDTAVYYCAAYYTKGVARRQFYYWGQGTQVTVSS | high polyreactivity
24 | QVQLVESGGGLVQAGGSLRLSCAASGSIFSRYAMGWYRQAPGKEREVVADISQRAGSTYYADSVKGRFTISRDNAKITVYLQMNSLKPEDTAVYYCAKPEAQVGGYWGYDYWGQGTQVTVSS | high polyreactivity
25 | QVQLVESGGGLVQAGGSLRLSCAASGSIFITYAMGWYRQAPGKERELVAAIRDSGDRTYYADSVKGRFTISRDNAKNTVYLQMNSLKPEDTEVYYCNALWQEPLKYDYWGQGTQVTVSS | low polyreactivity
26 | QVQLVESGGGLVQAGGSLRLSSADSGRIFNRYAMGSYRQAPGKERELVAAITGSGGRTYYADSVKGRFTISRDNAKNTVYLQMNSLKPEDTAVYYCAATSLIYGYRTYDYWGQGTQVTVSS | high polyreactivity
27 | QVQLVESGGGLVQAGGSLRLSCAASGFIFKWNAMGWYRQAPGKERELVAAITSGGGTYYADSVKGRFTISRDNAKNTVYLQMNSLKPEDTAVYYCAGYGYWGQGTQVTVSS | high polyreactivity
28 | QVQLVESGGGLVQAGGSLRLSCAASGSTFKYYAMGWYRQAPGKERELVAAITWRGGSTYYADSVKGRFTISRDNAKNTVYLQMNSLKPEDTAVYYCNRAYLYAYRSWWETYLRGDYWGQGTQVTVSS | high polyreactivity
29 | QVQLVESGGGLVQAGGSLRLSCAASGRTYHAYAMGWYRQAPGKGRELVAAITRTGTTHYADSVKGRFTISRDNAKNTVYLQMTSLKPEDTAVYYCAAQHVRVDAQFVLQGYDYWGQGTQVTVSS | low polyreactivity
30 | QVQLVESGGGLVQAGGSLRLSCAASGITFQTYTMGWYRQAPGKERELVATISWNGGSTYYADSVKGRFTISRDNAKNTVYLQMNSLKPEDNAVYDCATGKWGYFRYNYWGQGTQVTVSS | high polyreactivity
31 | QVQLVESGGGLVQAGGSLRLICAASGSIFTHNTMGWYRQAPGKERELVASIDSGASTNYADSVKGRFTISRDNAKNTVYLQMNSLKPEDTAVYYCAADDAKFRYRDDYWGQGTQVTVSS | low polyreactivity
32 | QVQLVESGGGLVQAGGSLRLSCAASGFTVGYAMGWYRQAPGTERELVAAITRGGGTRTSYADSVKGRFTISRDNAKNTVYLQMNSLKPEDTAVYYCAARRWWSPRTQYDYWGQGTQVTVSS | high polyreactivity
33 | QVQLVESGGGLVQAGGSLRLSCAASGFTFAYYTMGWYRQAPGKERELVATISTSGGSTYYADSVKGRFTISRDNAKNTVYLQMNSLKPEDTAVYYCNRDLGRYYHWYDYWGQGTQVTVSS | low polyreactivity
34 | QEQLQESCGGLVLAGGSLRLSCASSGSISAQAYMGWDRQAPGKEREHVAGINYGDNTNYADSVKGRFTISRDNEHRVSADEQPETGRYRGVLLRGFLELFYYYIYWGQGTQVTVSS | high polyreactivity
35 | QVQLVETGGGLVQAGGSLRLSCADYGYILWNAMGWYRQAPGTEMELVPAIRFRGGSTSYADSVKGRFTISRDNAQNTVYLQMKSLKPVYTAVYYCNARWWVIRPYERHDYWGQGTQVTVTS | low polyreactivity
36 | QVQLVESGGGLVQAGVSLRLSCAASGRTFGHYTMGWYRQAPGKERELVARISRTGSTKYADSVKGPFTISRDNAKNTVYLQMNSLKPEDTAVYYCARVQAGGYGERVYAYHYDYWGQGTQVTVSS | high polyreactivity
37 | QVQLVESGGGLVQAGGSLRLSCAASGSIFFPYVMGWYRQAPGKERELVAAIRRGGGSTYYADSVKGRFTISRDNAKNTVYLQMNSLKPEDTAVYYCAAKGWYVQHFKRGLYNYWGQGTQVTVSS | high polyreactivity
38 | QVQLVESGGGLVQAGCSLRLSCAASGRIFYTYAMGWYRQAPAKEREFVAGIRWSGSSTYYADSVMGRFRISRDNAKYTVYFQMLSMKPEDTAVYYCAKRYVWGDKRYWQGYDYWGQGNQVTVSS | high polyreactivity
39 | QVQLVESGGGLVQAGGSLRLSCAASGRTFGGYTMGWYRQATGKEMELVAAITGSGSNTYYADSVKGRFTISRDNAKNTVYLQMNSLKPEDTAVYYCAAPYSYRTWYPYGYWGQGTQVTVSS | high polyreactivity
40 | QLQLVESGGGLVQAGGSHRLSCAASGSIFTGYAMGRSRQAPGKQREFVAAISWSGSSTYYADSVKGRFTISRDNGKNTVYVQMNSLKPEDTAVYYCNAVKGWWGYYSSVDFDYWGQGTQVTVSS | low polyreactivity

Reference: the nanobody polyreactivity screen of Harvey et al. (2022)
